Experimental findings from PMC11273609, “Single-Molecule Detection of the Encounter and Productive Electron Transfer Complexes of a Photosynthetic Reaction Center” (Journal of the American Chemical Society, 2024) are described below.

Conditions in all cases: both partners purified
The target in test [1] is T1, Q(L264)E mutant RC-LH1 complex, His10-tag on the RC H-subunit (Rhodobacter sphaeroides, UniProt P0C0Y7 1-260; P0C0Y8 1-282; P0C0Y9 1-308; P0C0X9 1-55; P0C0Y1 7-49; P13402 1-82, Q(L264)E). The test can be described thus: single-molecule force spectroscopy (AFM, PF-QNM); cyt c2-His6 on the AFM probe via Ni2+-NTA and a PEG linker, His10-tagged RC-LH1 or RC-only complexes on a Ni2+-NTA SiOx substrate; oxidized RC, reduced cyt c2; 10 mM HEPES pH 7.4, 10 mM NaCl.

The target of test [2] is T2, D(M184)K mutant RC-LH1 complex, His10-tag on the RC H-subunit (Rhodobacter sphaeroides, UniProt P0C0Y7 1-260; P0C0Y8 1-282; P0C0Y9 1-308; P0C0X9 1-55; P0C0Y1 7-49; P13402 1-82, D(M184)K). The test is described as above.
In test [3] the target is T3, wild-type reaction center-light harvesting complex 1 (RC-LH1), His10-tag on the RC H-subunit (Rhodobacter sphaeroides, UniProt P0C0Y7 1-260; P0C0Y8 1-282; P0C0Y9 1-308; P0C0X9 1-55; P0C0Y1 7-49; P13402 1-82). The test is described as above.
Test [4] concerns the target T4, N(M188)D mutant RC-LH1 complex, His10-tag on the RC H-subunit (Rhodobacter sphaeroides, UniProt P0C0Y7 1-260; P0C0Y8 1-282; P0C0Y9 1-308; P0C0X9 1-55; P0C0Y1 7-49; P13402 1-82, N(M188)D). The test is described as above.
Test [5] concerns the target T1, Q(L264)E mutant RC-LH1 complex, …. The test can be described thus: single-molecule force spectroscopy (AFM, PF-QNM); cyt c2-His6 on the AFM probe, His10-tagged RC-LH1 on the SiOx substrate; oxidized RC-LH1, oxidized cyt c2 (probe treated with 0.8 mM potassium ferricyanide); 10 mM HEPES pH 7.4, 10 mM NaCl.
Test [6] deals with T2, D(M184)K mutant RC-LH1 complex, …. The test is described as above.
Test [7] concerns the target T3, wild-type reaction center-light …. The test is described as above.
Test [8] addresses T4, N(M188)D mutant RC-LH1 complex, …. Described as above.

B1: cytochrome c2 (cyt c2), His6-tagged (natural protein)
chain: QEGDPEAGAKAFNQCQTCHVIVDDSGTTIAGRNAKTGPNLYGVVGRTAGTQADFKGYGEGMKEAGAKGLAWDEEHFVQYVQDPTKFLKEYTGDAKAKGKMTFKLKKEADAHNIWAYLQQVAVRP
notes: cytochrome c2 of Rhodobacter sphaeroides (gene cycA); the His6-tag follows the C-terminal residue Pro124; Carries a heme cofactor; used pre-reduced (dithionite and phenazine methosulfate) or pre-oxidized (ferricyanide), the redox state is told in the assay; also called reduced cyt c2; oxidized cyt c2; not shown: His6, C-terminal, kept
Consider B1, for which the cumulative interaction probability in test [1] is 39%; in test [2], 24%; in test [3], around 34%; in test [4], 40%; in test [5], 36%; in test [6] it was 20%. In addition, the cumulative interaction probability in test [7] came out at 32%; in test [8], 37%.
